Experimental findings from the Immune Epitope Database (IEDB) are described below.

The term IC50 denotes the concentration at which inhibition is half-maximal.

A value given as a limit tells only on which side of the number the result lay.

For assay [1], the target named is HLA-A*02:02. In words: IEDB peptide-MHC binding, cellular MHC/competitive/fluorescence; ≥ and ≤ were set here for values at or beyond the usual limits of such assays.
The target of assay [2] is HLA-A*68:02. Described as above.
Assay [3] deals with HLA-A*02:01. The assay is described as above.
Assay [4] has as its target HLA-A*02:06. In words: IEDB peptide-MHC binding, purified MHC/competitive/radioactivity; ≥ and ≤ were set here for values at or beyond the usual limits of such assays.
The target in assay [5] is HLA-A*02:03. The description is as above.
Assay [6] deals with HLA-A*02:01. The description is as above. To be noted: source organism: Vaccinia virus WR.
In assay [7] the target is HLA-A*68:02. Described as above. To be noted: source organism: Vaccinia virus WR.
Where [8] appears, read: source organism: Influenza A virus.
The mark [9] stands for this setting: source organism: Vaccinia virus WR.

In the case of AAMDDFQLI, the IC50 was 9580 nM in assay [1] (setting [8]); 57900 nM in assay [2] (setting [8]); 7960 nM in assay [3] (setting [8]); 99 nM in assay [4] (setting [8]); 1730 nM in assay [5] (setting [8]).

Consider CALVSDCAST, for which the IC50 stood at 6410 nM in assay [1] (setting [9]); 52900 nM in assay [2] (setting [9]); 2600 nM in assay [4] (setting [9]); 149 nM in assay [6]; 146 nM in assay [5] (setting [9]).

As for CTIVDSMII, the IC50 in assay [1] (setting [9]) came out at 13900 nM; in assay [3] (setting [9]), 5160 nM; in assay [4] (setting [9]), 4580 nM; in assay [7] it was 3080 nM; in assay [5] (setting [9]), 1790 nM.

With DINVIGLIVI, the IC50 was 7150 nM in assay [1] (setting [9]); 2800 nM in assay [4] (setting [9]); 2190 nM in assay [7]; 1360 nM in assay [6]; 2810 nM in assay [5] (setting [9]).

Take DISDVKVLAA: the IC50 in assay [1] (setting [9]) was 33800 nM; in assay [3] (setting [9]), at least 70000 nM; in assay [4] (setting [9]) it was 4610 nM; in assay [7], 4980 nM; in assay [5] (setting [9]), 2200 nM.

In the case of DLKHATDYIA, the IC50 stood at 8760 nM in assay [1] (setting [9]); 9310 nM in assay [2] (setting [9]); 16300 nM in assay [3] (setting [9]); 1050 nM in assay [4] (setting [9]); 2960 nM in assay [5] (setting [9]).

For the sequence DLLLPSTDV, the IC50 was 15100 nM in assay [1] (setting [9]); 13300 nM in assay [2] (setting [9]); 1060 nM in assay [4] (setting [9]); 1480 nM in assay [6]; 3900 nM in assay [5] (setting [9]).

As to DLTALLSCI, the IC50 in assay [1] (setting [9]) came to 5200 nM; in assay [3] (setting [9]) it was 13500 nM; in assay [4] (setting [9]) it was 4880 nM; in assay [7] it was 1780 nM; in assay [5] (setting [9]), 996 nM.

EISSNDNAKI: the IC50 in assay [1] (setting [9]) came out at 11200 nM; in assay [4] (setting [9]), 162 nM; in assay [7], 122 nM; in assay [6] it was 508 nM; in assay [5] (setting [9]), 194 nM.

Take EVIERINLLV: the IC50 in assay [1] (setting [9]) came to 19700 nM; in assay [4] (setting [9]), 300 nM; in assay [7], 20 nM; in assay [6] it was 2700 nM; in assay [5] (setting [9]), 3320 nM.

For FIISTLNKIL, the IC50 is 5080 nM in assay [1] (setting [9]); 11700 nM in assay [2] (setting [9]); 8.1 nM in assay [4] (setting [9]); 170 nM in assay [6]; 1.8 nM in assay [5] (setting [9]).

For FTDCRTIDA, the IC50 in assay [1] (setting [9]) came to 10900 nM; in assay [4] (setting [9]) it was 2710 nM; in assay [7], 3420 nM; in assay [6], 3770 nM; in assay [5] (setting [9]) it was 2680 nM.

On to GAAITLVVI, for which the IC50 came out at 6450 nM in assay [1] (setting [9]); 7260 nM in assay [2] (setting [9]); 2950 nM in assay [4] (setting [9]); 1080 nM in assay [6]; 3280 nM in assay [5] (setting [9]).

For GIKGLDERFV, the IC50 turned out to be 6190 nM in assay [1] (setting [9]); 940 nM in assay [4] (setting [9]); 492 nM in assay [7]; 4390 nM in assay [6]; 844 nM in assay [5] (setting [9]).

As to GVLIAGIIL, the IC50 in assay [1] (setting [9]) was found to be 5240 nM; in assay [2] (setting [9]) it was 16900 nM; in assay [4] (setting [9]), 951 nM; in assay [6], 545 nM; in assay [5] (setting [9]), 1040 nM.

As to GVPHSVFIA, the IC50 came to 5370 nM in assay [1] (setting [9]); 5350 nM in assay [3] (setting [9]); 101 nM in assay [4] (setting [9]); 2990 nM in assay [7]; 3630 nM in assay [5] (setting [9]).

On to HINDQKFDDV, for which the IC50 in assay [1] (setting [9]) came to 5860 nM; in assay [3] (setting [9]), 13200 nM; in assay [4] (setting [9]) it was 1190 nM; in assay [7] it was 1120 nM; in assay [5] (setting [9]), 1160 nM.

As for HTNHSDISM, the IC50 turned out to be 8820 nM in assay [1] (setting [9]); 12100 nM in assay [3] (setting [9]); 1200 nM in assay [4] (setting [9]); 26 nM in assay [7]; 4140 nM in assay [5] (setting [9]).

Turning to ITLVVISVI, the IC50 came out at 15100 nM in assay [1] (setting [9]); 6030 nM in assay [2] (setting [9]); 1030 nM in assay [4] (setting [9]); 551 nM in assay [6]; 1810 nM in assay [5] (setting [9]).

As to ITPTIEDDKI, the IC50 was 18700 nM in assay [1] (setting [9]); 18800 nM in assay [3] (setting [9]); 1500 nM in assay [4] (setting [9]); 2190 nM in assay [7]; 4200 nM in assay [5] (setting [9]).

In the case of ITRLEVIGL, the IC50 stood at 5510 nM in assay [1] (setting [9]); 776 nM in assay [4] (setting [9]); 4460 nM in assay [7]; 3660 nM in assay [6]; 213 nM in assay [5] (setting [9]).

Turning to IVAAVIIMA, the IC50 in assay [1] (setting [9]) came out at 10400 nM; in assay [4] (setting [9]) it was 3570 nM; in assay [7], 24 nM; in assay [6], 1810 nM; in assay [5] (setting [9]) it was 2660 nM.

As to IVCSKTVKNV, the IC50 in assay [1] (setting [9]) is 10800 nM; in assay [4] (setting [9]), 2760 nM; in assay [7] it was 1730 nM; in assay [6], 1420 nM; in assay [5] (setting [9]) it was 503 nM.
